Experimental data as given in publication PMC8835667, “The KRAB Domain of ZNF10 Guides the Identification of Specific Amino Acids That Transform the Ancestral KRAB-A-Related Domain Present in Human PRDM9 into a Canonical Modern KRAB-A Domain” (International Journal of Molecular Sciences, 2022).

B1: GST-ZNF10-AB fusion protein (domain or fragment)
chain: not shown
B2: GST-PRDM9-A/24-97 (domain or fragment, human, UniProt Q9NQV7 24-97, looked up)
chain: VKDAFKDISIYFTKEEWAEMGDWEKTRYRNVKRNYNALITIGLRATRPAFMCHRRQAIKLQVDDTEDSDEEWTP

Molecular target: tripartite motif containing 28 (TRIM28) (human (endogenous in HeLa), UniProt Q13263 1-835)
Sequence (Q13263 whole entry): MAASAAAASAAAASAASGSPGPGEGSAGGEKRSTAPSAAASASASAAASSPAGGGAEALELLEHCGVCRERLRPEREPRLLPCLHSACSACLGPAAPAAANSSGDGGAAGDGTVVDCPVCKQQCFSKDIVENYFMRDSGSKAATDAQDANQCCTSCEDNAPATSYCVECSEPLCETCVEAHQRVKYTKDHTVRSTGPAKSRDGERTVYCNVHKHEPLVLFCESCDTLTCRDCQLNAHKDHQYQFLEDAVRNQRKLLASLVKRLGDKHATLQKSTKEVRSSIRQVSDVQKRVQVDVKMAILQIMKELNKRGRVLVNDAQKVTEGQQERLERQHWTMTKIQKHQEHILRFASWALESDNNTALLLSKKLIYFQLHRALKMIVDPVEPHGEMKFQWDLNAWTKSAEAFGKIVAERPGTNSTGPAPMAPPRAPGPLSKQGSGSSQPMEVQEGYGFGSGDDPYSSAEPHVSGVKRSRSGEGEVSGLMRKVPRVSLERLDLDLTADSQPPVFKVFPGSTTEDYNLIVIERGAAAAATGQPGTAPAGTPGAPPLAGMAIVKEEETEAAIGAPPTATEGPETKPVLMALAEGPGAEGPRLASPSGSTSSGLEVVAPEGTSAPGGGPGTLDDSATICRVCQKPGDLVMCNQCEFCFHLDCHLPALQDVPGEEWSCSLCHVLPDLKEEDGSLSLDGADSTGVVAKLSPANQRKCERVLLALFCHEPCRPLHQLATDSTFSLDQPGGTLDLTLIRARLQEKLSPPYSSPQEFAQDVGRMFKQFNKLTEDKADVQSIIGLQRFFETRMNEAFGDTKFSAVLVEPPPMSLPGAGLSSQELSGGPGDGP
Experiment: cell-based or functional assay

Row | Binder | transcriptional repression factor over Gal4-DBD alone, dual luciferase reporter assay in HeLa cells (KRAB domain as Gal4-DBD fusion) [fold]
1 | B1 | ~19
2 | B2 | 1.3
